Data reported in PMC4541365, “Alpha-ring Independent Assembly of the 20S Proteasome” (Scientific Reports, 2015).

Molecular target: the molecule itself
Experiment: native gel or EMSA; ICAR-purified α-his subunits alone (10 or 20 μg) on nondenaturing 4–15% or 5–10% gradient gels, 55 V, 4 °C; self-assembly into single and double α-rings

B1: Methanococcus maripaludis S2 20S proteasome α subunit, C-terminally hexahistidine-tagged, wild type (natural protein, UniProt Q6M0L9 1-259, looked up)
chain: MQQMVPASGYDRAITIFSPEGRLYQVEYAREAVRRGTTAVGIKCKDGVVLAVDRRITSKLIDVSSIEKIFQIDDHIVAATSGLVADARVLIDRARIEAQMNRVSYGEAITVEALAKKICDIKQAYTQHGGARPFGLALLITGIDRHSARLFETDPSGALIEYKATAIGSGRPIAMEVLESKYDENMTVSEGMELALYALSKTTEELKPENIDMAIIKDSGKLVEKISVDEIEKIVKAVYEKVKAEEEEAEKNKGEEDSE
notes: Proteasome subunit alpha of Methanococcus maripaludis S2, cloned by PCR from genomic DNA; expected Mr of α-his 29.5 kDa; Exists as single rings (SR), double rings (DR) and non-ring species; also called α-his; WT α; source: also Sephacryl S-300 fractions; also in lysate (lysate mixing) or coexpressed with β subunits; not shown: His6, C-terminal, kept
- binding result: binds
